Measured values from patent US20110311569A1.
Read-outs that look alike come from different tables or passages of the source.

Experiments:
Experiment in all cases: cell-based or functional assay
[1] = molecular target: SF162 Env with GKV at positions 167-169 (HIV-1 isolate SF162) (UniProt P19551)
[2] = molecular target: SF162 Env with clade B consensus V3 region (identical to that of JR-FL) (HIV-1 isolate SF162; HIV-1 clade B consensus) (UniProt P19551)
[3] = molecular target: chimeric SF162 Env with the V1/V2 domain of JR-FL (HIV-1 isolate SF162; HIV-1 isolate JR-FL) (UniProt P19551)
[4] = molecular target: SF162 Env with NI at positions 160-161 and GKV at positions 167-169 (HIV-1 isolate SF162) (UniProt P19551)
[5] = molecular target: JR-FL Env with GK at positions 167-168 (HIV-1 isolate JR-FL)
[6] = molecular target: HIV-1 SF162 Env (parental) (HIV-1 isolate SF162) (UniProt P19551)
[7] = molecular target: SF162 Env with NI at positions 160-161 (HIV-1 isolate SF162) (UniProt P19551)
[8] = molecular target: chimeric JR-FL Env with the V1/V2 domain of SF162 (HIV-1 isolate JR-FL; HIV-1 isolate SF162) (UniProt P19551)
[9] = molecular target: HIV-1 JR-FL Env (parental) (HIV-1 isolate JR-FL)
[10] = molecular target: SF162 Env with GKV at positions 167-169 (HIV-1 isolate SF162) (UniProt P19551); remark: listed apart in the source
[11] = molecular target: SF162 Env with clade B consensus V3 region (identical to that of JR-FL) (HIV-1 isolate SF162; HIV-1 clade B consensus) (UniProt P19551); remark: listed apart in the source
[12] = molecular target: SF162 Env with clade C consensus V3 region (HIV-1 isolate SF162; HIV-1 clade C consensus) (UniProt P19551)
[13] = molecular target: SF162 Env with V3 substitution T13H (HIV-1 isolate SF162) (UniProt P19551)
[14] = molecular target: SF162 Env with V3 substitution A22T (HIV-1 isolate SF162) (UniProt P19551)
[15] = molecular target: SF162 Env with CRF02_AG consensus V3 region (HIV-1 isolate SF162; HIV-1 CRF02_AG consensus) (UniProt P19551)
[16] = molecular target: SF162 Env with clade A1 consensus V3 region (HIV-1 isolate SF162; HIV-1 clade A1 consensus) (UniProt P19551)
[17] = molecular target: SF162 Env with CRF01_AE consensus V3 region (HIV-1 isolate SF162; HIV-1 CRF01_AE consensus) (UniProt P19551)
[18] = molecular target: SF162 Env with V3 substitution D25E (HIV-1 isolate SF162) (UniProt P19551)
[19] = molecular target: SF162 Env with clade F consensus V3 region (HIV-1 isolate SF162; HIV-1 clade F consensus) (UniProt P19551)
[20] = molecular target: JR-FL Env N160K/E168K mutant (HIV-1 isolate JR-FL)
[21] = molecular target: SF162 Env with clade H consensus V3 region (HIV-1 isolate SF162; HIV-1 clade H consensus) (UniProt P19551)
[22] = molecular target: HIV-1 SF162 Env (parental) (HIV-1 isolate SF162) (UniProt P19551); remark: listed apart in the source

## monoclonal antibody 2909
[1]
  ND50 (pseudovirus neutralization): 0.54 µg/mL
[2]
  ND50 (pseudovirus neutralization): 0.145 µg/mL
[3]
  ND50 (pseudovirus neutralization): > 10 µg/mL
[4]
  ND50 (pseudovirus neutralization): > 10 µg/mL
[5]
  ND50 (pseudovirus neutralization): > 10 µg/mL
[6]
  ND50 (pseudovirus neutralization): 0.00049 µg/mL
[7]
  ND50 (pseudovirus neutralization): > 10 µg/mL
[8]
  ND50 (pseudovirus neutralization): 0.065 µg/mL
[9]
  ND50 (pseudovirus neutralization): > 10 µg/mL
[10]
  fold increase in 2909 concentration required for 50% neutralization, over SF162: > 1000 fold
[11]
  ND50 (pseudovirus neutralization): 0.051 µg/mL
  ND50 ratio (fold increase in ND50 over the SF162 sequence): 879 fold
[12]
  ND50 (pseudovirus neutralization): 0.0048 µg/mL
  ND50 ratio (fold increase in ND50 over the SF162 sequence): 83 fold
[13]
  fold increase in ND50 over SF162: 8.3 fold
[14]
  fold increase in ND50 over SF162: 46 fold
[15]
  ND50 (pseudovirus neutralization): 0.037 µg/mL
  ND50 ratio (fold increase in ND50 over the SF162 sequence): 637 fold
[16]
  ND50 (pseudovirus neutralization): 0.0064 µg/mL
  ND50 ratio (fold increase in ND50 over the SF162 sequence): 110 fold
[17]
  ND50 (pseudovirus neutralization): > 20 µg/mL
  ND50 ratio (fold increase in ND50 over the SF162 sequence): > 344000 fold
[18]
  fold increase in ND50 over SF162: 2.3 fold
[19]
  ND50 (pseudovirus neutralization): 0.0076 µg/mL
  ND50 ratio (fold increase in ND50 over the SF162 sequence): 131 fold
[20]
  ND50 (pseudovirus neutralization): < 0.04 ng/mL
  neutralization potency relative to 2F5: > 140 fold
  neutralization potency relative to 2G12: > 500 fold
  neutralization potency relative to IgG-b12: 20 fold
  neutralization potency relative to a pool of potent V3-specific mAbs: 4000 fold
  percent neutralization at 20 ng/ml (% neutralization at 20 ng/ml): > 99
[21]
  ND50 (pseudovirus neutralization): 0.17 µg/mL
  ND50 ratio (fold increase in ND50 over the SF162 sequence): 2930 fold
[22]
  ND50 (pseudovirus neutralization): 5.8e-05 µg/mL
